Laboratory results taken from paper doi:10.1101/2025.01.22.634229, “Computationally designed stem-epitope mimetics elicit broadly reactive antibodies” (bioRxiv, 2025).

T1: FI6-focused_03 (synthetic design on Bacteroides …)
T1 construct: also called FI6-focused design_03; design_03 scaffold; source: E. coli BL21 (DE3), purified (Ni-NTA, SEC)
T1 chain: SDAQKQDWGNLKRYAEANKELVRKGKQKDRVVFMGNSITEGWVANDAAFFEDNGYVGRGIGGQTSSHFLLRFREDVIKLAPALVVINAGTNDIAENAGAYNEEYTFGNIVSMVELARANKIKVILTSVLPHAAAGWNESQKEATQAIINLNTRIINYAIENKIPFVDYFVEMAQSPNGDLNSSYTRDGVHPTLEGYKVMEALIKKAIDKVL

T2: FI6-focused_04 (synthetic design on Bacteroides …)
T2 construct: also called FI6-focused design_04; FI6-focused design; source: E. coli BL21 (DE3), purified (Ni-NTA, SEC)
T2 chain: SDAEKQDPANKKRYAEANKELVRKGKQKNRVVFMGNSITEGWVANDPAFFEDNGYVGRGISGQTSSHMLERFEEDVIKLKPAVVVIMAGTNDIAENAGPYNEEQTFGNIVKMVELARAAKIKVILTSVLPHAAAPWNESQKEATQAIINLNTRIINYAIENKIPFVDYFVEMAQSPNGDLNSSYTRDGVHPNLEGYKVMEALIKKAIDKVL

T3: stem-mimetic_01 (synthetic design on Mus musculus ApoE …, chimera)
T3 construct: source: E. coli BL21 (DE3), purified (Ni-NTA, SEC)
T3 chain: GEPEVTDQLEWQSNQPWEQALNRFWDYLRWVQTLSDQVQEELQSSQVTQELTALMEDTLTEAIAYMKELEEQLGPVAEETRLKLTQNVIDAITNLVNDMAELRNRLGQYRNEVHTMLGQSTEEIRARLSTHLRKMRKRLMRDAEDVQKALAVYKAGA


Tests used:
Conditions in all cases: both partners purified
FI6-focused_03 = biological target: T1, FI6-focused_03; experiment: SPR
FI6-focused_04 = biological target: T2, FI6-focused_04; experiment: SPR; Biacore 8K, HBS-EP+; ligand on a CM5 chip by amine coupling, named FI6 Fab in the legend of Figure 2A and 2D (the methods say IgG); monomeric design as analyte (62.5 nM to 7.8 nM for FI6-focused_04; 5 μM to 312.5 nM for stem-mimetic_01); 1:1 Langmuir fit
stem-mimetic_01 = biological target: T3, stem-mimetic_01; experiment: as above

Binder | Kd (FI6-focused_03) [nM] | Kd (FI6-focused_04) [nM] | Kd (stem-mimetic_01) [nM]
FI6 antibody (IgG) (antibody, V domains shown, also called FI6 Ab; source: Expi293, purified (protein A, SEC)) VH: QVQLVESGGGVVQPGRSLRLSCAASGFTFSTYAMHWVRQAPGKGLEWVAVISYDANYKYYADSVKGRFTISRDNSKNTLYLQMNSLRAEDTAVYYCAKDSQLRSLLYFEWLSQGYFDYWGQGTLVTVSS VL: DIVMTQSPDSLAVSLGERATINCKSSQSVTFNYKNYLAWYQQKPGQPPKLLIYWASTRESGVPDRFSGSGSGTDFTLTISSLQAEDVAVYYCQQHYRTPPTFGQGTVEIK | 0.26 | – | –
FI6 Fab (Fab, V domains shown) VH: QVQLVESGGGVVQPGRSLRLSCAASGFTFSTYAMHWVRQAPGKGLEWVAVISYDANYKYYADSVKGRFTISRDNSKNTLYLQMNSLRAEDTAVYYCAKDSQLRSLLYFEWLSQGYFDYWGQGTLVTVSS VL: DIVMTQSPDSLAVSLGERATINCKSSQSVTFNYKNYLAWYQQKPGQPPKLLIYWASTRESGVPDRFSGSGSGTDFTLTISSLQAEDVAVYYCQQHYRTPPTFGQGTVEIK | – | 6 | 44
